These results are taken from CN115028713A (JIANGSU DONGKANG BIOMEDICAL TECH CO LTD, dated 2022).

The test concerns the target 重组新冠N蛋白 N-HIS6X (recombinant SARS-CoV-2 N protein with His6 tag) (SARS-CoV-2, UniProt P0DTC9 1-419).

B1: 单克隆抗体OP2 (anti-SARS-CoV-2 N protein monoclonal antibody OP2) (antibody, V domains shown)
VH: DVQLVESGGGLVQPGGSRKLSCAASGSTFSNFGMHWVRQAPEKGLEWVAYISSASSIIYYADTVKGRFTISRDNPKNTLFLQMTSLRSEDTAMYYCARSAMDYWGQGTSVTVSS
VL: DIVLTQSPASLAVSLGQRATISCKASQSVNYSGDSYMNWFQQKPGQPPKLLIYAASNLESGIPARFSGSGSGTDFTLNIHPVEEEDAATYYCQQSEEQPYTFGGGTKLEIK
notes: also called 抗N蛋白的抗体
Take B1: the 50% effective concentration (EC50) (as a rule, the midpoint of the concentration-response curve) turned out to be 0.0113 µg/mL.
